This note sets out measurements from patent publication US20130164299A1 (CENTRE NATIONAL DE LA RECHERCHE SCIENTIFIQUE, published 2013).

Assay [1] deals with T1, AICL, expressed on transfected 293T cells (UniProt Q92478 1-149, limits assumed).
T1 construct: whole, on cells; also called AICL-transfectants
T1 sequence (looked up): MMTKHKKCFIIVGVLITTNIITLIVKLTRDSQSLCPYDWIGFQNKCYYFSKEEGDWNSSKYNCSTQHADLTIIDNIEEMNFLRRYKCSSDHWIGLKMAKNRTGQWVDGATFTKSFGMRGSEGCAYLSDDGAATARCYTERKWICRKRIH
In words: flow cytometry on 293T cells transfected with AICL.

For assay [2], the target named is T2, LLT1-Fc fusion protein (human, UniProt Q9UHP7 60-191, limits assumed).
T2 construct: also called LLT1-hFc; LLT-Fc; not shown: human Fc (hFc)
T2 sequence: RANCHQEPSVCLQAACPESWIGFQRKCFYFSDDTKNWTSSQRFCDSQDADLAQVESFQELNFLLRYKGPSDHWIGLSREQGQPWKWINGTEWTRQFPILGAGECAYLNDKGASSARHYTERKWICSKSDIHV
Put plainly: SPR (Biacore T100, 25 °C); LLT1-Fc immobilised on CM5 chip (500 RU), antibody 3.125 to 100 nM in solution. As for the experimental part: Surface plasmon resonance measurements were performed on a Biacore T100 apparatus (Biacore) at 25° C. In all Biacore experiments, HBS buffer supplemented with 0.05% surfactant P20 served as running buffer and sensorgrams were analyzed with Biaevaluation software. Recombinant LLT1-Fc fusion protein (described by Aldemir et al in Journal of Immunology, 2005 vol. 176: 7791-7795) were immobilized covalently to carboxyl groups in the dextran layer on a Sensor Chip CM5 (Biacore). The sensor chip surface was activated with EDC/NHS(N-ethyl-N′-(3-dimethylaminopropyl) carbodiimidehydrochloride and N-hydroxysuccinimide, Biacore). Proteins diluted in coupling buffer (10 mM acetate, pH 4.5) were injected. Deactivation of the remaining activated groups was performed using 100 mM ethanolamine pH 8 (Biacore).
Anti-LLT12F1A5 was tested in a range of concentrations from 3.125 to 100 nM for binding to immobilized LLT1-Fc protein (500 RU).

Assay [3] has as its target T3, CLEC2A-Fc protein (UniProt Q6UVW9 49-174).
T3 construct: Negative control coat in the ELISA; not shown: Fc portion recognised by anti-human Ig
T3 sequence (looked up): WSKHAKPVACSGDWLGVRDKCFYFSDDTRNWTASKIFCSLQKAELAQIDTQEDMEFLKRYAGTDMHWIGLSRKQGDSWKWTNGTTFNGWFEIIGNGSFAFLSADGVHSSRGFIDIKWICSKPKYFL
Put plainly: ELISA, coated Fc fusion protein. As for the experimental part:
Anti-LLT12F1A5 and anti-LLT14F were compared to mAb's 4C7 and MAB3480 with respect to binding to CLEC2D (LLT1) fusion proteins in the ELISA application. Wells were coated with Fc fusion proteins representing full-length CLEC2D or splice variant 2 and 4 hereof (CLEC2D-iso2 and -iso4, respectively). Full-length CLEC2D contains exons 1, 2, 3, 4a and 5, whereas isoforms 2 and 4 contain exons 1, 2, 3, 4a, 4b, 5 and exons 1, 2, 3, 5, respectively. Coated wells were incubated with anti-LLT12F1A5, anti-LLT14F, MAB3480 or 4C7 antibodies. Wells not coated with protein (PBS) or coated with CLEC2A-Fc protein were included as negative controls. Antibody binding was detected by HRP-conjugated anti-mouse Ig secondary antibody and chromogen. HRP-conjugated anti-human Ig antibody was included as a positive control that recognized the Fc portion of both fusion proteins.
A general note: An ELISA detects its analyte on a solid surface through an enzyme-linked reagent.

The target of assay [4] is T4, lectin-like transcript 1 (LLT1), recombinantly expressed on cells (human, UniProt Q9UHP7 1-191).
T4 construct: In the Western blot the protein stood in cell extracts, in the IHC validation in fixed cells; also called CLEC2D; C1R-LLT1 transfectants
T4 sequence: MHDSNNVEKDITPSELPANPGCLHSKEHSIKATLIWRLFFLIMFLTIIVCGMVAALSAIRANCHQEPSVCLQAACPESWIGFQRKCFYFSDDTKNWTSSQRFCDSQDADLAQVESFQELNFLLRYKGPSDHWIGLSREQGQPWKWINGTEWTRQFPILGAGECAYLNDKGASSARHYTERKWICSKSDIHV
In words: flow cytometry on C1R-LLT1 transfectants, anti-mouse IgG secondary antibody. As for the experimental part: (§1) C1R-LLT1 transfectants and parental C1R cells were washed in PBS containing 1% FCS and incubated with anti-LLT14F or anti-LLT14F-hIgG4 antibody at concentrations 0.0003-10 μg/ml as indicated in FIG. 4 for 30 min at 4° C. followed by incubation with fluorochrome-conjugated anti-mouse or anti-human IgG secondary antibodies, respectively. Samples were washed three times in PBS containing 1% FCS and analysed by flow cytometry.
(In flow cytometry, cells or beads pass a laser one at a time.)

In assay [5] the target is T2, LLT1-Fc fusion protein. Put plainly: blocking assay by flow cytometry: binding of LLT1-Fc multimers to CD161 on 293T-CD161 cells in the presence of the antibody. As for the experimental part:
A multimeric complex was generated by incubating the LLT1-Fc fusion protein with biotinylated protein A (Pierce) at a molar ratio of 1:1. Saturating amounts of purified hIgG were added to block the remaining free protein A sites. A multimer control was generated using protein A-biotin saturated with purified hIgG. These complexes were conjugated to streptavidin-allophycocyanin (BD Biosciences). […] Anti-LLT14F (4F) or control IgG1 (ctrl IgG1) was added at concentrations 0.01-200 μg/ml. For comparison, anti-LLT12F1 (2F1A5) and AF3480 were tested in parallel with 4F in this assay. Binding of LLT1-multimers was evaluated by flow cytometry.

The target of assay [6] is T4, lectin-like transcript 1 (LLT1), …. Put plainly: flow cytometry on C1R-LLT1 transfectants, anti-human IgG secondary antibody. As for the experimental part:
as §1

One may read the Kd as the equilibrium constant for the complex coming apart. A high value points to weaker binding. In general, EC50 (read off the curve) refers to the concentration that produces a half-maximal response.

B1: anti-LLT12F1A5 (antibody, mouse IgG1, V domains shown)
VH: EVQLQQSGAELVRSGASVKLSCTASGFNIKDYYMHWVKQRPEQGLEWIGWIDPENGDTEYAPKFQGKATVTADTSSNTVYLQLSSLTSEDTAVYYCNGEIITTTAWFTYWGQGTLVTVSA
VL: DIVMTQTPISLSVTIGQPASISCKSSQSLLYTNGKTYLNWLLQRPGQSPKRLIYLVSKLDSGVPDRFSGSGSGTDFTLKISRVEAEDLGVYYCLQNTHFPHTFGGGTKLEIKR
notes: also called anti-LLT2F1; anti-LLT2F1A5
B1: the binding result in assay [1] and in assay [3] was “no binding” throughout. The molecule further showed a Kd in assay [2] of 1.24 nM.

B2: anti-LLT14F (antibody, mouse IgG1, V domains shown)
VH: EVQLVESGGGLVQPGGSLKLSCAASGFTVSSYGMSWVRQIPDKRLELVATINSNGGRTFYPDSVKGRFTISRDNAQNTLYLQMSSLKSEDTAMYYCARDGGYWAHFDYWGQGTTLTVSS
VL: DVLMTQTPLSLPVSLGDQASISCRSSQSIVHSNGNTYLEWYLQKPGQSPKLLIYKVSNRFSGVPDRFSGSGSGTDFTLKISRVEAEDLGVYYCFQGSHVPWTFGGGTKLEIKR
notes: also called anti-LLT14F68; anti-LLT1-4F68
With B2, in assay [4], the “EC50 (read off the curve)” value was approximately 0.04 µg/mL. For the same molecule, the “IC50 (read off the curve)” value in assay [5] is approximately 6 µg/mL. The binding result in assay [1] and in assay [3] was “no binding” in each case.

B3: anti-LLT14F-hIgG4 (antibody, V domains shown)
VH: B2 VH
VL: B2 VL
notes: Murine variable domains of anti-LLT14F on human kappa/IgG4 scaffold; also called chimeric mouse/human anti-LLT14F; ChimLLT14F; not shown: human IgG4 heavy chain constant region (CH) with hinge mutation S241P; human kappa light chain constant domain (CL)
With B3, the “EC50 (read off the curve)” value in assay [6] was approximately 0.05 µg/mL.
